According to patent publication US20210055300A1 (EISAI R AND D MANAGEMENT, published 2021):
Where a chain is given by its changes, count along the chain named.

Experiments:
APOA4 in human serum [1] = biological target: T1, APOA4 in human serum (human, UniProt P06727 21-396); assay: sandwich ELISA, capture antibody
T1 construct: Native protein in serum of healthy humans (monomer and dimer); also called human serum APOA4; APOA4 in the specimen
T1 sequence: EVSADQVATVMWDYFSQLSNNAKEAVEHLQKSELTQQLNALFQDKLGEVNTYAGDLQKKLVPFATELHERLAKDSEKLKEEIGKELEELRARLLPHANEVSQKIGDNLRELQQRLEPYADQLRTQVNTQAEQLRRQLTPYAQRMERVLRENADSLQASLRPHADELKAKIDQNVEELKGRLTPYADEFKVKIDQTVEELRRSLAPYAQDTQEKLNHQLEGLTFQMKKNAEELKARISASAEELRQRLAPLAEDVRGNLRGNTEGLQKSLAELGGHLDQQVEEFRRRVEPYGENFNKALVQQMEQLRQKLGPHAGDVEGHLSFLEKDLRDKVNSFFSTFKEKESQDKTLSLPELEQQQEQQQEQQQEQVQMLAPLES
Experimental: (§1) Anti-human APOA monoclonal antibody No. 30 was adjusted to a concentration of 2 μg/mL with a 50 mM Tris buffer solution (pH 7.5). Antibody No. 30 solution was added to a Maxisorp cup (NUNC, manufactured by C8 Maxisorp) at 100 μL/well, the Maxisorp cup was put in a wet box and allowed to stand at 4° C. overnight, and antibody No. 30 was coated on the well. After removing antibody No. 30 solution by suction, a 50 mM Tris-buffered saline solution (pH 7.5) (blocking solution) containing 5% skim milk, 0.1% sodium azide, and 0.01% Tween 20 was added at 200 μL/well, and then the cup was left at room temperature for 2 hours or at 4° C. for 1 day or more (hereinafter, the prepared Maxisorp cup is referred to as “antibody No. 30 cup”). […] After stopping the reaction by injecting 100 μL/well of 0.5 M H₂SO₄, the absorbance was measured at a wavelength of 450 nm, and an APOA concentration was calculated using the rhAPOA4-His of a known concentration as a standard substance.

[2] = biological target: T2, recombinant human APOA4 in which a histidine tag is bound to the C-terminal of human APOA4 (human, UniProt P06727 21-396); assay: HDX-MS of rhAPOA4-His with and without antibody
T2 construct: Secreted from Expi293F cells and purified from the supernatant; Unfractionated mix of monomer and dimer; also called rhAPOA4-His; rhAPOA-His; not shown: C-terminal histidine tag
T2 sequence: T1 sequence
Experimental: A solution in which about 10 μM of antibody No. 30 or antibody No. 33 were added to 10 μM of rhAPOA4-His and rhAPOA4-His and mixed therewith was diluted 20-fold with a PBS deuterium solution to start a deuteration reaction. As a control, a PBS solution was used.
After 1 minute, 10 minutes, 60 minutes, and 240 minutes at 23° C., an equivalent amount of 500 mM TCEP solution (pH 3 or less) containing cooled 2M guanidine hydrochloride was added to stop the reaction. After digesting the reaction solution with a pepsin column, peptide was separated and eluted by reversed-phase liquid chromatography using a C18 column, and LC-MS/MS measurement was performed with a mass spectrometer.
Each peptide derived from rhAPOA4-His was identified from the mass data, and the amount of deuterium exchange at each reaction time was calculated from the mass value. The peptide in which the amount of deuterium exchange was changed depending on the presence or absence of the antibody was extracted as an estimated epitope region.

[3] = biological target: T3, refolded rhAPOA4-His monomer (human, UniProt P06727 21-396); assay: ELISA, antigen captured by anti-6xHis antibody, hybridoma supernatant
T3 construct: not shown: C-terminal histidine tag
T3 sequence: T1 sequence
Experimental: Using the culture supernatant of the hybridoma obtained in (1), the reactivity to rhAPOA4-His was evaluated by ELISA as follows.
50 μL/well of a 50 mM Tris buffer (pH 7.5) containing 2 μg/mL of an anti-6×His rabbit polyclonal antibody (anti-6×His antibody, manufactured by Bethyl Laboratories) was added to a 96-well plate (manufactured by Nunc), and incubation was performed at 4° C. overnight. After removing the anti-6×His antibody solution, blocking was performed by adding 100 μL/well of 50 mM Tris-buffered saline solution (pH 7.5) containing 0.01% Tween 20 and 5% skim milk, and the plate was left at room temperature for 1 hour. After washing the well three times with Tris-buffered saline solution (pH 7.5) (washing solution) containing 0.01% Tween 20, rhAPOA4-His prepared in Example 1 or refolded rhAPOA4-His monomer prepared by the method described below was added at a concentration of 450 ng/mL (10 nM) by 50 μL/well, and incubation was performed at room temperature for 1 hour. The refolded rhAPOA4-His monomer was prepared by diluting rhAPOA4-His prepared in Example 1 two-fold with a 50 mM Tris-buffered saline solution (pH 7.5) containing 8 M urea (manufactured by Wako Pure Chemical Industries, Ltd.), leaving at room temperature for 30 minutes, and diluting 50-fold with a 50 mM Tris-buffered saline solution (pH 7.5) (reaction solution) containing 4% Block Ace (manufactured by DS Pharma Biomedical Corporation) and 0.01% Tween 20. After washing the well three times with the washing solution, the culture supernatant of the hybridoma was added to the well and incubation was performed at room temperature for 1 hour. After removing the added culture supernatant, the well was washed three times with the washing solution. A horseradish peroxidase-labeled anti-mouse IgG antibody (manufactured by Jackson ImmunoResearch Laboratories) appropriately diluted with the reaction solution was added at 50 μL/well, incubation was performed at room temperature for 1 hour, and then the well was washed 5 times with the washing solution. […]

rhAPOA4-His monomer = biological target: T4, rhAPOA4-His monomer (human, UniProt P06727 21-396); assay: statement of the description; experiment is the ELISA of Example 4 (FIG. 1)
T4 construct: also called APOA4 monomer; monomer of rhAPOA4-His; not shown: C-terminal histidine tag
T4 sequence: T1 sequence
Experimental: (§2) 50 μL/well of a 50 mM Tris buffer (pH 7.5) containing 2 μg/mL of an anti-6×His rabbit polyclonal antibody (anti-6×His antibody, manufactured by Bethyl Laboratories) was added to a 96-well plate (manufactured by Nunc), and incubation was performed at 4° C. overnight. After removing the anti-6×His antibody solution, blocking was performed by adding 100 μL/well of 50 mM Tris-buffered saline solution (pH 7.5) containing 0.01% Tween 20 and 5% skim milk, and the plate was left at room temperature for 1 hour. After washing the well three times with a Tris-buffered saline solution (pH 7.5) (washing solution) containing 0.01% Tween 20, the rhAPOA4-His monomer or dimer prepared in Example 2 was diluted so as to be 450 ng/mL with a 50 mM Tris-buffered saline solution (pH 7.5) (reaction solution) containing 1% Block Ace (manufactured by DS Pharma Biomedical) and 0.01% Tween 20, and added thereto at 50 μL/well. After incubating at room temperature for 1 hour, the well was washed three times with the washing solution, and then the anti-human APOA4 monoclonal antibody obtained in Example 3 was diluted with the reaction solution so as to be 1 μg/mL and added thereto at 50 μL/well. After the incubation at room temperature for 1 hour, the well was washed three times with the washing solution. Subsequently, 50 μL/well of a horseradish peroxidase-labeled anti-mouse IgG antibody (manufactured by Jackson ImmunoResearch Laboratories) appropriately diluted with the reaction solution was added, incubation was performed at room temperature for 1 hour, and the well was washed 5 times with the washing solution. 50 μL/well of a TMB (3,3′,5,5′-tetramethylbenzidine) solution was added and incubation was performed at room temperature for 15 minutes. The reaction was stopped by adding 50 μL/well of 1N H₂SO₄ in the equivalent volume to that of the TMB solution, and the absorbance of 450 nm was measured using a microplate reader (manufactured by ThermoFisher Scientific).

rhAPOA4-His dimer = biological target: T5, rhAPOA4-His dimer (human, UniProt P06727 21-396); assay: as above
T5 construct: also called APOA4 dimer; dimer of rhAPOA4-His; not shown: C-terminal histidine tag
T5 sequence: T1 sequence
Experimental: as §2

APOA4 in human serum [4] = biological target: T1, APOA4 in human serum; assay: sandwich ELISA on diluted human serum, labeled detection antibody with No. 30 as capture
APOA4 in human serum [5] = biological target: T1, APOA4 in human serum; assay: sandwich ELISA, labeled detection antibody
Experimental: as §1

Measured: binding result

B1: anti-APOA4 monoclonal antibody No. 30 (antibody, IgG2b, V domains shown)
VH: EVQLQQSGPELVKPGASVKISCKASGYSFIGYFMSWVKQSHGKSLEWIGRINPYNGDTFYNQKFKGKATLTVDKSSSTAHMELLSLTSEDSAVYYCGRGIIGFDYWGQGTTLTVSS
VL: DIQMTQSPASLSASVGETVTITCRPSENIHSYLAWYHQKQGKSPQLLVYDATTLAEGVPSRFSGSGSGTQFFLKINSLQPEDFGSYYCQHHYVSPWTFGGGTKLEIK
notes: Mouse hybridoma antibody purified with Protein A; Used as capture antibody coated on the well in the sandwich ELISAs; also called anti-human APOA4 monoclonal antibody No. 30; Anti-human APOA monoclonal antibody No. 30
not listed: APOA4 in human serum [4] | APOA4 in human serum [5]
binds: all other assays above

B2: anti-APOA4 monoclonal antibody No. 37 (antibody, IgG1, V domains shown)
VH: QVQLQQSGAELVKPGASVKISCKASGYTFSNYWLNWVKLRPGKGLEWIGQIYPGDGDTNYNGKFKGKATLTADKSSSRAYMQLSSLTSEDSAVYFCARRNNYVMDYWGQGTSVTVSS
VL: DIVMTQSHKFMSTSVGDRVSITCKASQDVGTSVAWYQQKLGQSPKLLINWASIRHTGVPDRFTGSGSGTDFSLTISNVQSEDLADHFCQQYSSYPFTFGSGTKLEIK
notes: Mouse hybridoma antibody; also called anti-human APOA4 monoclonal antibody No. 37; HRP-labeled antibody No. 37
binds: [3] | rhAPOA4-His monomer | rhAPOA4-His dimer | APOA4 in human serum [4]

B3: anti-APOA4 monoclonal antibody No. 33 (antibody, IgG1, V domains shown)
VH: QVHLQQSGAELVRPGSSVKISCKASGYAFSIYWMNWVRQRPGQGLEWIGQIYPGDGDTTYNGKFKGKATLTADKSSNTAYMHLSSLTSEDSAVFFCARRGDYVYDYWGQGTTLTVSS
VL: B2 VL with F10L, S32A, L40P, N49Y, I53T, S72T, S76Y, H86Y, S93T
notes: Mouse hybridoma antibody; unlabelled in HDX-MS; also called anti-human APOA4 monoclonal antibody No. 33; HRP-labeled antibody No. 33
not listed: APOA4 in human serum [1] | APOA4 in human serum [4]
binds: all other assays above
